The data set is described as follows: yeast display, Sf9 membrane polyspecificity reagent, FACS + sequencing; frameworks hold sequencing errors. In short, it runs like this:
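Polyreactivity labels are assigned by the sorting gate from which each nanobody was recovered. The gates were low and high (top ~1%), set on anti-HA fluorescence for expression and streptavidin fluorescence for reagent binding. Before sorting, galactose-induced (36–48 hours) yeast display cells were stained for 1 hour at 4 °C with 10% biotinylated, detergent-solubilized Sf9 membrane reagent.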
As to “QVQLVESGGGLVQAGGSLRLSCAASGNIFDLYAMGWYRQAPGKERELVAAITRSSSRTYYADSVKGRFTISRDNAKNTVYLQMNSLKPEDTAVYYCRAKQVNRFDYWGQGTKVTVSS”, the “polyreactivity (PSR sort gate)” value is “high polyreactivity”.
Regarding “QVQLVESGGGLVQAGGSLRLSCAASGNIFDTYVMGWYRQAPGKERELVAAITSDGGTYYADSVKGRFTSSRDNATNPVYLQMNSRQPEDTAVYYCAADTYYYPIHDYWGQGTQVTVSS”, the “polyreactivity (PSR sort gate)” value is “low polyreactivity”.
With “QVQLVESGGGLVQAGGSLRLSCAASGNIFDVYAMGWYRQAPGKERELVADIDRGGTTYADSVKGRFTISRDNAKNTVYLQMNSLKPVDTAVYYCAADYVQGFGFYYQWLYDYWGQGTQVTVSS” the entry was “low polyreactivity”; with “QVQLVESGGGLVQAGGSLRLSCAASGNIFGGNAMGWYRQAPGKERELVAAMTRGGSTYYADSVKGRFTISRDNAKNTVYLQMNSLKPEATAVYYCAKSYRLRSDYDYWGQGTQVTVSS”, “low polyreactivity”.
With “QVQLVESGGGLVQAGGSLRLSCAASGNIFGVYAMGWYRQAPGKERELVAAIRYSTVSTYYADSVKGRFTISRDNAKNTVYLQMNSLKPEDTAVYYCAAQRRRYLPGHYYYWGQGTQVTVSS” the entry was “high polyreactivity”; with “QVQLVESGGGLVQAGGSLRLSCAASGNIFGWNDMGWCRQAPGKEWEVVAAISWTGDSTYDADSVKGRFTISRDNAKNTVYLQMNSLKPEDTAVYYGAADTPTLQYLTPRSEFDAWGQGTQVTVSS”, “low polyreactivity”.
“QVQLVESGGGLVQAGGSLRLSCAASGNIFGWYAMGWYRQAPGKERELVAAISSGGRTNYADSVKGRFTISRDNAKNTVYLQMNSLKPEDTAVYYCAAERKLYGLYDYWGQGTQVTVSS”: the “polyreactivity (PSR sort gate)” value is given as “low polyreactivity”.
Turning to “QVQLVESGGGLVQAGGSLRLSCAASGNIFGYYAMGWYRQAPGKERELVAAIRTRGGRTYYADSVKGRFTISRDNAKTTVYLQMNSLKPEDTAVYYGAARSIAGFWRYDYWGQGTQVTVSS”, the “polyreactivity (PSR sort gate)” value is given as “high polyreactivity”.
In the case of “QVQLVESGGGLVQAGGSLRLSCAASGNIFILNAMGWYRQAPGKERELVAAISTTGGSTYYADSVKGRFTISRDNAKNTVYLQMNSLKPEDTAVYYCAAYTYRYSTFYYWGQGTQVTVSS”, the “polyreactivity (PSR sort gate)” value was “high polyreactivity”.
For the sequence “QVQLVESGGGLVQAGGSLRLSCAASGNIFIRYAMGWYRQAPGKERDLVAAISQSGGGTSYADSVKGRFTISRDNAKNTVYLQMNSLKPEDTAVYYCNARYWRYPWRFGAWVGHDYWGQGTQVTVSS”, the “polyreactivity (PSR sort gate)” value is “low polyreactivity”.
With “QVQLVESGGGLVQAGGSLRLSCAASGNIFKYYTMGWYRQAPGKERELVAAITSGGRTNYADSVKGRFTISRDNAKNTVYLQMNSLKPEDTAVYYCAAYDVIYSQGFDYWGQGTQVTVSS” the entry was “low polyreactivity”; with “QVQLVESGGGLVQAGGSLRLSCAASGNIFLKNAMGWYRQAPGKERELVAAISKRGGSTYYAYSVKGRFTISRDNAKNTVYLQMNSLKPEDTAVYYCAAVLTKVWRGPEMDYWGQGTQVTVSS”, “high polyreactivity”.
Regarding “QVQLVESGGGLVQAGGSLRLSCAASGNIFLTYAMGWYRQAPGKERELVAAISRGGRTYYADSVKGRFTISRDNAKNTVYLQMNRLKPEDTAVYYCNVQPDRISRYDYWGQGTQVTVSS”, the “polyreactivity (PSR sort gate)” value is “high polyreactivity”.
With “QVQLVESGGGLVQAGGSLRLSCAASGNIFLYYAMGWYRKAPGKERELVADIDSSGASTYYADSVKGRFTISRDNAKNTVYLQMNSLKPEDTAVYYCPAEFHWWYAGYDYGYWGLGTQVTVSS” the entry was “low polyreactivity”; with “QVQLVESGGGLVQAGGSLRLSCAASGNIFLYYAMRWYRQAPGKERELVADIDSSGASTYYADSVKVRFTISRDNAKNTVYLQMNSLKPEDTAVYYCAAEFHWWYAGYDYGYWGQGTKVTVSS”, “low polyreactivity”.
With “QVQLVESGGGLVQAGGSLRLSCAASGNIFNYNAMGWYRQATGNERELVAAISFSGGSTYYADSVKARFTISRDNAQNTVYLQMNSLKPEDTAVYYCAKAERNYFEYWGQGTQVTVSS” the entry was “high polyreactivity”; with “QVQLVESGGGLVQAGGSLRLSCAASGNIFPSYAMGWYRQAPGKERELVASINFSDGYTSYADSVKGRFTISRDNAKNTVYLQMNSLKPEDTAVYNCNADVWYYYYGFKGEEDYWGQGTQVTVSS”, “low polyreactivity”.
With “QVQLVESGGGLVQAGGSLRLSCAASGNIFRGYTMGWSRQAPGKEREWVATISWNGVSTFYADSVKGRFTISRDNAKNTVYVQMNSLKPEDTAVYYCAAYYPSHDYSGFWSDTYEYWGQGTQVTVSS” the entry was “low polyreactivity”; with “QVQLVESGGGLVQAGGSLRLSCAASGNIFRKYAMGWYRQAPGKERELVATISYSGGSTYYADSVKGRFTISRDNAKNTVYLQMNSLKPEDTAVYYCNAVKDLDSSFDYWGQGTQVTVSS”, “low polyreactivity”; with “QVQLVESGGGLVQAGGSLRLSCAASGNIFRRYTLGWSRQAPGKERELVAAISSGGSTNYADSVKGRFTLSRDNAKNTVYLQMNSLKPEDTAVYYCAATRRYIQYGYDYWGQGTQVTVSS”, “high polyreactivity”.
For “QVQLVESGGGLVQAGGSLRLSCAASGNIFRSYMGWYRQAPGKEREFVAGITWRGGNTYYADSVKGRFTISRDNAKNTVYLQMNSLKPEDTAVYYCAAEIFVYYRWYDYWGQGTQVTVSS”, the “polyreactivity (PSR sort gate)” value is “high polyreactivity”.
As to “QVQLVESGGGLVQAGGSLRLSCAASGNIFRVYDMGWYRQAPGKERELVATITSGGRTYYADSVKGRFTISRDNAKNTVYLQMNSLKPEDTAVYYCNVDVKGRPTFWSPFGRFDYWGQGTQVTVSS”, the “polyreactivity (PSR sort gate)” value is on record as “high polyreactivity”.
As to “QVQLVESGGGLVQAGGSLRLSCAASGNIFRYNAMGWYRQAPGKERELVAAISRGGSTKYADSVKGRFTISRDNAKNTVYLQMNSLKPEDTAVFYCARVKSTGSTFASPYDYWGQGTQVTVSS”, the “polyreactivity (PSR sort gate)” value was “high polyreactivity”.
With “QVQLVESGGGLVQAGGSLRLSCAASGNIFRYNARGWYRKAPGKERELVAAISSVGTTNSADSVKGRFTSSRDNAKNTFYLQMNSLKPEDTAVYYCNAAWSSYLSGGYESWGQGTQVTVSS” the entry was “low polyreactivity”; with “QVQLVESGGGLVQAGGSLRLSCAASGNIFSKYVRGWYRQARGKERELVAAITYSGGSTYYADSVKGRFTISRDNSKNTVYLQMNSLKPEDTGVYYCNAVRRRSSLKLDSWGQGTQVTVSS”, “high polyreactivity”.
Consider “QVQLVESGGGLVQAGGSLRLSCAASGNIFSRNAMGWYRQAPGKERELVASIRWSGGSTYADSVKGRFTISRDNAKNTVYLQMNSLKPEDTAVYYCAADSLHGRKFRGVDYWGQGTEVTVSS”, for which the “polyreactivity (PSR sort gate)” value is listed as “low polyreactivity”.
“QVQLVESGGGLVQAGGSLRLSCAASGNIFSRYAMGWYRQAPGKERELVAAISSSGGTTYYADSVKGRFTISRDNAKNTVYLHMNSLKPEDTAVYYCNARRRQIYSEFGYWGQGTQVTVSS”: the “polyreactivity (PSR sort gate)” value is “high polyreactivity”.
“QVQLVESGGGLVQAGGSLRLSCAASGNIFSVYAMGWYRKAPGKERELVAAISSSGGRTYYADSVKGRFTISRDNEKNTVYLHMNSLKPEDTAVYYCAARSYTGQFVYWGQGTQVTVSS”: the “polyreactivity (PSR sort gate)” value is reported as “high polyreactivity”.
Take “QVQLVESGGGLVQAGGSLRLSCAASGNIFSWYAMGWYRQAPGKERELVAAITSGGRTYYADSVKGRFTISRDNAKNTVYLQMNSLKPEDTAVYYCNALRRRQYHDDYWGQGTQVTVSS”: the “polyreactivity (PSR sort gate)” value is “high polyreactivity”.
With “QVQLVESGGGLVQAGGSLRLSCAASGNIFSYYAMGWYRQAPGKERELVAAIRSSGVGTRYADSVKGRFTISRDNAKNTVYLQINSLKPEDTAVYYCAATGYTGYSRYYYWGQGTQVTVSS” the entry was “high polyreactivity”.
In the case of “QVQLVESGGGLVQAGGSLRLSCAASGNIFSYYAMGWYRQAPGKETELVAAIRSSGVGTRYADSVKGRFTISRDNAKNTVYVQMNSLKPEDTAVYYCAATGYTGYSRYYYWGQGTQVTVSS”, the “polyreactivity (PSR sort gate)” value was “high polyreactivity”.
With “QVQLVESGGGLVQAGGSLRLSCAASGNIFTGYMGWYRQAPRKERELVAAISRSGGRTHYADSVKGRFTISRDNAKNTVYLQMNSLKPEDTAVYYCNADVRRYTAFTKYPYAFNYWGQGTQVTVSS” the entry was “high polyreactivity”; with “QVQLVESGGGLVQAGGSLRLSCAASGNIFTQYGMGWYRQAPGKERELVAAISRRGGSTYYADSVKGRFTISRDNAKNTVYLQMNSLNPEDTAVYYCARRTNRPPWGFEYWGQGTQVTVSS”, “high polyreactivity”; with “QVQLVESGGGLVQAGGSLRLSCAASGNIFVVNAMGWYRQAPGIERELVAAITVSGGSTYYADSVKGRFTISRDNAKNTVYLQMNRLKPEDTAVYYCNAYYWHDNWDIELGKFDYWGQGTQVTVSS”, “low polyreactivity”.
With “QVQLVESGGGLVQAGGSLRLSCAASGNIFWSNAMGWYRQAPGKERELVAGITSSTGSTYYADSVKGRFTISRDNAKNTVYLQMNSLKPEDTAVYSCAARYRYYPVTTRGYYWGQGTQVTVSS” the entry was “high polyreactivity”.
With “QVQLVESGGGLVQAGGSLRLSCAASGNIIDANAMGWYRQAPGKERELVAAITSSGGSTYYADSVKGRFTISRDNANNTVYLQMNSLKPEDTAVYYCAKSHAIYYWWDESWGHGTQVTVSS” the entry was “low polyreactivity”; with “QVQLVESGGGLVQAGGSLRLSCAASGNIIVFYAMGWYRQAPGKEREFVAAITSGGSTNYADSVKGRFTISRDNAKNTVYLQMNSLKPEDTAVYYCAGRQWFSHRRWGGSRYDYWGQGTQVTVSS”, “high polyreactivity”.
For “QVQLVESGGGLVQAGGSLRLSCAASGNIIWGNAMGWYRQAPGKERELVAAISRRSGSTYYADSVKGRFTISRDNAKNTVYLQMNSLKPEDTAVYYCNTAGRVGTYDYWGQGTQVTVSS”, the “polyreactivity (PSR sort gate)” value was “high polyreactivity”.
Turning to “QVQLVESGGGLVQAGGSLRLSCAASGNILARGYAMGWYRQAPGKERELVAAITFNDGSTYYADSVKGRFTISRDNAKNTVYLQMNSLKPEDTAVYYCAADFSYVYYLYDYWGQGTQVTVSS”, the “polyreactivity (PSR sort gate)” value is reported as “low polyreactivity”.
With “QVQLVESGGGLVQAGGSLRLSCAASGNILASNAMGWYRQAPGKERELVAAITISGDTTYYADSVKGRFTISRDNAKNTVYLQMNSLKPEDTAVYYCNAVSFIVNGGYDGDYWGQGTQVTVSS”, the “polyreactivity (PSR sort gate)” value is “low polyreactivity”.
As for “QVQLVESGGGLVQAGGSLRLSCAASGNILGYNAMGWYRQAPGKERELVAAISWIGGSTYYADSVKGRFTISRDNAKNTVYLQMNSLKPEDTAVYYCAARRVIYYPAFYYDYYYWGQGTQVTVSS”, the “polyreactivity (PSR sort gate)” value was “low polyreactivity”.

For the origin of these results see the nanobody polyreactivity screen of Harvey et al. (2022).
